Molecular target: lg3bp_human LGALS3BP (UniProt Q08380)
Sequence (Q08380 whole entry): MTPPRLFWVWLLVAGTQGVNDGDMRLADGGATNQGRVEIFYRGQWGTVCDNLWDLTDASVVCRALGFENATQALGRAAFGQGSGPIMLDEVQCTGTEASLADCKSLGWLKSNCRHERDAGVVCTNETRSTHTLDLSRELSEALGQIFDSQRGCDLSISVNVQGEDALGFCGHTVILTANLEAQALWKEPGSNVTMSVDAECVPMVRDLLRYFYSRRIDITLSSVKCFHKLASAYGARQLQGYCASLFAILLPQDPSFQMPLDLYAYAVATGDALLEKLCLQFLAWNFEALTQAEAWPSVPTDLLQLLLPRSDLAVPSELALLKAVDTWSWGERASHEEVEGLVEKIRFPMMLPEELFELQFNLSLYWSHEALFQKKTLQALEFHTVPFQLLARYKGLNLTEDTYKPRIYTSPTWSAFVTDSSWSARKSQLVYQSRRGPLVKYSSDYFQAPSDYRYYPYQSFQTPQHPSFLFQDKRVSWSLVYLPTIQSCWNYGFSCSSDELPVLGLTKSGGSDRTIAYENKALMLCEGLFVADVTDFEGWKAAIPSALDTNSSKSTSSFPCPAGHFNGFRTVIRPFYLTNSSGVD

Extracellular sulfatase Sulf-2 (Homo sapiens), Q8IWU5 S583A, sequence (Q8IWU5 whole entry S583A): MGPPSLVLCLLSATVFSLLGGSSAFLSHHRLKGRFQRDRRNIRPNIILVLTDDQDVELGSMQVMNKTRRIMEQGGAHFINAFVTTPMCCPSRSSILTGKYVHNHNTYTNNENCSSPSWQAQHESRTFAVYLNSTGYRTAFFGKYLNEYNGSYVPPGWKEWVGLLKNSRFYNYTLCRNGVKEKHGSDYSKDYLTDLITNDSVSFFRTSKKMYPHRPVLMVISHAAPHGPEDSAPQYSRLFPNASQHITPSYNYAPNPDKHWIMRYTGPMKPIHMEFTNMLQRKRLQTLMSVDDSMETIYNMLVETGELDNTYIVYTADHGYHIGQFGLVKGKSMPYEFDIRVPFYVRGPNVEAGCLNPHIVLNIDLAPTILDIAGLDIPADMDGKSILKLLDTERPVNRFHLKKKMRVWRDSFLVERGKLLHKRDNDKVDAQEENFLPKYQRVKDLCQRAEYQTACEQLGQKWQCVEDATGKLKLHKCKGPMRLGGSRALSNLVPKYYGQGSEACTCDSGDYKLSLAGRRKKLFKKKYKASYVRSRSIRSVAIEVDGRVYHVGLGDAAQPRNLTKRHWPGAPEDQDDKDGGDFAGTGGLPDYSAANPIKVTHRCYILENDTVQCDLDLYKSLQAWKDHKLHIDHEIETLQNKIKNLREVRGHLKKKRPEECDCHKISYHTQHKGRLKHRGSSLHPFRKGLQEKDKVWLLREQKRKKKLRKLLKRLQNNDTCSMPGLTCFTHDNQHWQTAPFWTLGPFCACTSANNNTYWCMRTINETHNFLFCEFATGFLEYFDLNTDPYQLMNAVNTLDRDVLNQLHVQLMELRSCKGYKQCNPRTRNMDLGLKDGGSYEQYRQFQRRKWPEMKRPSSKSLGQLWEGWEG

effect of a mutation on the interaction: increasing interaction strength
Substance: Extracellular sulfatase Sulf-2 (Homo sapiens), Q8IWU5 S583A

From IntAct's records for PubMed 38825040
